Reference: PMC4506495
Numbering of substitutions follows the chain as printed. One block for each substance: values may come before it.

Columns and labels:
[1] = target: Magnetospirillum gryphiswaldense MSR-1 Fur C9L/M14L/M16V-triple mutant (Magnetospirillum gryphiswaldense MSR-1); assay: crystal structure; holo-Fur with 1 mM MnCl2, 1.9 Å; 10% PEG3000, 0.1 M CHES pH 9.0
[2] = target: Magnetospirillum gryphiswaldense MSR-1 Fur C9L/M14L/M16V-triple mutant (Magnetospirillum gryphiswaldense MSR-1); assay: crystal structure; Fur-Mn2+ with the 25-bp feoAB1 operator dsDNA (three base-pair mutations), 2.6 Å (SeMet form 2.82 Å)
[3] = target: Magnetospirillum gryphiswaldense MSR-1 ferric uptake regulator (Fur), wild type (Magnetospirillum gryphiswaldense MSR-1); assay: SEC; size-exclusion chromatography of apo-Fur in solution
[4] = target: Magnetospirillum gryphiswaldense MSR-1 ferric uptake regulator (Fur), wild type (Magnetospirillum gryphiswaldense MSR-1); assay: crystal structure; apo-Fur without transition metal ions, 1.55 Å; crystals from (NH4)2SO4, 0.1 M sodium citrate pH 5.5
[5] = target: Magnetospirillum gryphiswaldense MSR-1 ferric uptake regulator (Fur), wild type (Magnetospirillum gryphiswaldense MSR-1); assay: AUC; analytical ultracentrifugation of apo-Fur in solution
[6] = target: T1, MgFur E108A/H125A (metal site 2 mutant) E108A;H125A (Magnetospirillum gryphiswaldense MSR-1) (UniProt V6F4Q0); assay: SPR; conditions: 1 mM Mn2+, SPR: 20 mM Tris-HCl pH 8.0, 150 mM NaCl, 1 mM MnCl2, 0.005% Tween20, 25 C, EMSA: 40 mM HEPES pH 7.0, 125 mM NaCl, 2 mM FeSO4/MnCl2/EDTA, footprinting: …
T1 sequence: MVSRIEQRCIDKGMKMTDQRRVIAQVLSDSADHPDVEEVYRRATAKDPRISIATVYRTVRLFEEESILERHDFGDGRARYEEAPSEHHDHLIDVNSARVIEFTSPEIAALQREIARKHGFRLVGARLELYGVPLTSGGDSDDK

[7] = target: T2, MgFur WT (Magnetospirillum gryphiswaldense MSR-1) (UniProt V6F4Q0); assay: SPR; conditions: 1 mM Mn2+, SPR: 20 mM Tris-HCl pH 8.0, 150 mM NaCl, 1 mM MnCl2, 0.005% Tween20, 25 C, EMSA: 40 mM HEPES pH 7.0, 125 mM NaCl, 2 mM FeSO4/MnCl2/EDTA, footprinting: …
T2 sequence: T1 sequence with A108E, A125H

[8] = target: T3, MgFur K15A K15A (Magnetospirillum gryphiswaldense MSR-1) (UniProt V6F4Q0); assay: SPR; conditions: 1 mM Mn2+, SPR: 20 mM Tris-HCl pH 8.0, 150 mM NaCl, 1 mM MnCl2, 0.005% Tween20, 25 C, EMSA: 40 mM HEPES pH 7.0, 125 mM NaCl, 2 mM FeSO4/MnCl2/EDTA, footprinting: …
T3 sequence: T1 sequence with K15A, A108E, A125H

stoichiometry N [1]: 2 | stoichiometry N [2]: 2
Substance: Magnetospirillum gryphiswaldense MSR-1 Fur C9L/M14L/M16V-triple mutant (natural protein)

stoichiometry N [3]: 2 | stoichiometry N [4]: 2 | stoichiometry N [5]: 2
Substance: Magnetospirillum gryphiswaldense MSR-1 ferric uptake regulator (Fur), wild type (natural protein)

Substance: TTAATCGCAACTCATTCGCAATTGC (double strand) [feoAB1 operator (SPR)]
Kd [6]: 272 nM | Kd [7]: 85 nM | Kd [8]: 977 nM
